Substitutions are numbered along the chain they refer to.

One assay has as its system Cyno in house BCMA. The assay is described as follows: ProteOn analysis of CA8 chimeric and humanised constructs, cyno in house BCMA. It counts as binding. Conditions: Run 1, Cyno in house BCMA, 25° C.
The target in a further assay is T1, Human in house BCMA (Homo sapiens, UniProt Q02223).
T1 construct: CD33 signal peptide (N); TEV site (internal); Fc (C); made in house
The assay is described as follows: ProteOn analysis of CA8 chimeric and humanised constructs, human in house BCMA. Type of assay: binding. The conditions noted are these: Run 1, Human in house BCMA, ProteOn, 25° C.; for ka: in M-1s-1 (unit assumed); for kd: in s-1 (unit assumed). The protocol: The initial screen of CA8 chimeric and humanised variants was carried out on the ProteOn XPR36 (Biorad). The method was as follows; Protein A was immobilised on a GLC chip (Biorad, Cat No: 176-5011) by primary amine coupling, CA8 variants were then captured on this surface and recombinant human BCMA (in house or commercial US Biological, B0410) materials (run 2 only)) passed over at 256, 64, 16, 4, 1 nM with a 0 nM injection (i.e. buffer alone) used to double reference the binding curves, the buffer used is the HBS-EP buffer. 50 mM NaOH was used to regenerate the capture surface. The data was fitted to the 1:1 model using the analysis software inherent to the ProteOn XPR36. Run 1 corresponds to the first screen of humanised CA8 variants (JO to J5 series) and run 2 to the second screen of humanised CA8 variants (J5 to J9 series). Both runs were carried out at 25° C.

T1 sequence (Q02223 with tags, fused parts or gaps limits assumed): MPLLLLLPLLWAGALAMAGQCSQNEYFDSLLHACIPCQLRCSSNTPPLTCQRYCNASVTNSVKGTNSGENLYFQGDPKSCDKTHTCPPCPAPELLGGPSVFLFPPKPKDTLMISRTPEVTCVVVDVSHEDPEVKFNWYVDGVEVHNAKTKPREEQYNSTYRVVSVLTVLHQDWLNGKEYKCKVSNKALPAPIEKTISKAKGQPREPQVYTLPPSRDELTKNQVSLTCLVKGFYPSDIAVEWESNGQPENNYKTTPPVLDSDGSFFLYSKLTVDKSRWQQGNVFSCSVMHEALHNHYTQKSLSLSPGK
Chain of Cyno in house BCMA (as listed by the source): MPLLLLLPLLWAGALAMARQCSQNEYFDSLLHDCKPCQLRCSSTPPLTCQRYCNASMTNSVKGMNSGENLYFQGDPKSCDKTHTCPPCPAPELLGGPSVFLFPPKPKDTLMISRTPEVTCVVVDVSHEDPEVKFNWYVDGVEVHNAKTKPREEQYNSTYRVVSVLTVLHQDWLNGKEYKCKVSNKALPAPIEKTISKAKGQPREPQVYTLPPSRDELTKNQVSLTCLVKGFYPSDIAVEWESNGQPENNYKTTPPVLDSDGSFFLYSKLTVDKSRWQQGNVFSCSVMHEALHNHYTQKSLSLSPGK

B1: CA8 humanised J1M1: humanised CA8 anti-BCMA antibody, VH J1 (SEQ ID NO:13) + VL M1 (SEQ ID NO:33) (antibody, V domains shown)
VH: QVQLVQSGAEVKKPGSSVKVSCKASGYTFTNYWMHWVRQAPGQGLEWMGATYRGHSDTYYNQKFKGRVTITADKSTSTAYMELSSLRSEDTAVYYCARGAIYNGYDVLDNWGQGTLVTVSS
VL: DIQMTQSPSSLSASVGDRVTITCSASQDISNYLNWYQQKPGKAPKLLIYYTSNLHSGVPSRFSGSGSGTDYTLTISSLQPEDFATYYCQQYRKLPWTFGQGTKLEIKR
modifications: Humansed antibody sequence
Take B1: the ka in the assay on Cyno in house BCMA (in M-1s-1 (unit assumed)) was found to be 3.33E+05; with Human in house BCMA it was 2.27E+05. The kd at Cyno in house BCMA (in s-1 (unit assumed)) is given as 1.47E−04; with Human in house BCMA, 3.43E−04.

B2: S307118G03 humanised H3L0: humanised S307118G03, VH H3 (SEQ ID NO:83) + VL L0 (SEQ ID NO:89) (antibody, V domains shown)
VH: QVQLVQSGAEVKKPGSSVKVSCKASGYTFTDYYMKWVRQAPGQGLEWIGEIYPNNGGITYNQKFKGRATLTVDKSTSTAYMELSSLRSEDTAVYYCANGYEFVYWGQGTLVTVSS
VL: B1 VL with D28G, N53S, Y71F, R92S
modifications: Humansed antibody sequence
Regarding B2, the KD result at Cyno in house BCMA is reported as “No”. In the assay with Human in house BCMA, this molecule had a ka of 2.86E+05 and a kd of 1.52E−03.

B3: S307118G03 humanised H2L1: humanised S307118G03, VH H2 (SEQ ID NO:81) + VL L1 (SEQ ID NO:91) (antibody, V domains shown)
VH: B2 VH with I48M, A68V, L70I, V72A
VL: B1 VL with D28G, N53S, R92S
modifications: Humansed antibody sequence
As for B3, at Cyno in house BCMA, the KD entry was “No”. In the assay with Human in house BCMA, this molecule came in with a ka of 3.38E+05 and a kd of 2.15E−03.

B4: S307118G03 humanised H2L0: humanised S307118G03, VH H2 (SEQ ID NO:81) + VL L0 (SEQ ID NO:89) (antibody, V domains shown)
VH: B2 VH with I48M, A68V, L70I, V72A
VL: B1 VL with D28G, N53S, Y71F, R92S
modifications: Humansed antibody sequence
As to B4, on Cyno in house BCMA, the KD result is recorded as “No”. In the assay with Human in house BCMA, this molecule showed a ka of 3.78E+05 and a kd of 2.41E−03.

B5: S307118G03 humanised H4L1: humanised S307118G03, VH H4 (SEQ ID NO:85) + VL L1 (SEQ ID NO:91) (antibody, V domains shown)
VH: B2 VH with I48M, A68V, L70I, V72A, N98D
VL: B1 VL with D28G, N53S, R92S
modifications: Humansed antibody sequence
On to B5, for which the KD entry at Cyno in house BCMA and with Human in house BCMA was “No” each time.

B6: S307118G03 humanised H3L1: humanised S307118G03, VH H3 (SEQ ID NO:83) + VL L1 (SEQ ID NO:91) (antibody, V domains shown)
VH: B2 VH
VL: B1 VL with D28G, N53S, R92S
modifications: Humansed antibody sequence
In the case of B6, on Cyno in house BCMA, the KD entry is on record as “No”. In the assay with Human in house BCMA, this molecule returned a ka of 4.69E+05 and a kd of 2.28E−03.

The values above are taken from patent US11419945B2, “Antigen binding proteins” (Glaxo Group Limited, priority 2011, dated 2022).
